# Read-outs that look alike come from different tables or passages of the source. Square brackets hold non-standard residues; d marks the D form. Peptide text beside a SMILES is read from it. Arg(Me) = CNC(=N)NCCC[C@H](N)C(=O)O; azaGly = NNC(=O)O
# What was measured:
# [1] = In vitro stability in human serum (LC/MS/MS); settings: for half-life at 750 nM: human
# Description: Test compound is added to 1.5 mL human serum in a 96-wells deepwell plate in a final concentration of 750 nM. The compound is mixed and immediately thereafter a 100 μl sample is harvested in a 96-wells 2D-tuberack (T=0 sample). The 2 D-tubes are closed with rubber tube caps and the sample plate is stored at −20° CF. in the freezer. The deepwell plate is put into an incubator which was set at humidified (95%) atmosphere at 5-7% CO2 and 37° C. for an incubation period of maximum 240 h. During this incubation period, samples of 100 μl are collected on various time intervals, dependent on the test compound used; time points 0, 1, 2, 3, 6, 24, 48, 72 h in case of Kisspeptides and 0, 3, 6, 24, 48, 72, 168, 240 h in case of kisspeptide-pentasaccharide conjugates. Sample plates are put on ice in case of sampling and stored at −20° C. until analysis by LC/MS/MS.
# For LC-MS/MS analysis, the compounds are separated over an XTerra RP8 column and using a gradient mobile phase of ammonium acetate buffer and acetonitrile at a fixed column temperature. MS/MS detection is done with a triple quadrupole mass spectrometer and employing negative ion electrospray ionization. The mass spectrometer is set up to achieve a known degree of in source fragmentation, where the initially formed multiply charged negative ions lose one or more SO3 molecules. The most abundant of these secondary ions are then subjected to a common MS/MS experiment in which a single SO3 loss is monitored. The Q1 and Q3 mass filter settings for this MS/MS experiment have commonly been determined in method development. […] Internal standardization is accomplished by adding a different conjugate of approximately the same size to the bioanalytical samples.
# The rate of compound loss is expressed as a half-life (plasma t^1/2). The t^1/2 for the test compound can be determined by plotting the natural logarithm (In) of the measured concentrations against time and fitting the line through all data points. The gradient of this line is the first order rate constant (k) for substrate disappearance and is determined by regression analysis. The rate constant is converted to a half-life according to the following equation: In vitro half-life(t^1/2)=−ln 2/k
# [2] = target: T1, human KISS-receptor (Homo sapiens, UniProt Q969F8); experiment: NFAT-regulated luciferase reporter gene assay in CHO-k1 cells, agonist activity; assay type: cell-based
# T1 construct: expressed in transfected cells; host or cells: CHO-k1 cells that also express mitochondrially targeted aequorin, Gα16 and an NFAT-luciferase reporter
# T1 sequence (Q969F8 whole entry): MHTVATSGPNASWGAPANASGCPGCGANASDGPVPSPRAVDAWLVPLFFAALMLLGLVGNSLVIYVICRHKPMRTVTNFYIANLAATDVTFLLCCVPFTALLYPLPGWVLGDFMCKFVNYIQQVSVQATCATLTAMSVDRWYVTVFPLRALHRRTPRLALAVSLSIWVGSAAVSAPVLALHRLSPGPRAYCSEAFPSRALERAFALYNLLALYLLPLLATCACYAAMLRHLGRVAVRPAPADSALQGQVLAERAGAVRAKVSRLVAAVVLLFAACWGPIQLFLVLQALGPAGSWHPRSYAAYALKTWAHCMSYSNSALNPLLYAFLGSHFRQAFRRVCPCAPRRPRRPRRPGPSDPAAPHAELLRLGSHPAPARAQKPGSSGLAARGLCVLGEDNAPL
# Description: CHO-k1 cells were used that expressed the mitochondrially targeted aequorine and Gα16 (from Euroscreen, Brussels, Belgium), a Nuclear Factor of Activated T-cells-responsive element (NFAT) under the control of a promoter directing the expression of a firefly luciferase reporter gene (pNFAT-TALuc obtained from Clontech, Mountain View, Calif.), and the human GPR54-R Hygro(+)-hGPR54WT c4; MSD). These cells were cultured in Dulbecco's Modified Eagle Medium: Nutrient Mixture F-12 (DMEM/F12) (Invitrogen, Carlsbad, Calif.), supplemented with 10% (vol/vol) filtered bovine serum (Hyclone, Thermo Fisher Scientific, Waltham, Mass.), 100 U/ml penicillin G, 100 μg/ml streptomycin, 400 μg/ml Geneticin and 400 μg/ml Hygromycin (Invitrogen). […] Kisspeptin-10 was used as a standard. […] When the conjugates were tested in the presence of a final percentage of 20% human serum, 10 μl assay medium containing 60% human serum (Sigma-Aldrich, #H4522) was added to the wells. In the absence of human serum, 10 μl of assay medium was added. Cells were harvested and diluted to a concentration of 7.5E5 cells/ml in assay medium without 0.1% BSA. 10 μl of cell solution was added to the compound wells. After incubation for 4 hours in a humidified atmosphere at 5% CO2 and 37° C., the plate was left at room temperature for 30 minutes. Subsequently, 15 μl of Steadylite™ solution (PerkinElmer, Boston, Mass.) was added and the cells, protected from light, were allowed to lyse for 30 min at room temperature. Luminescence, indicated as relative luminescence units (RLU), was measured on an Envision Multilabel reader (PerkinElmer).
# [3] = in vivo
# Description: The pharmacokinetics of conjugate C8 were determined after administration of 40 nmol/kg IV in male and of 200 nmol/kg SC in female Sprague-Dawley rats.
# [4] = pEC50 serum, presence of 20% human serum
# [5] = female, Sprague-Dawley, rat, plasma, sc, 0.2 umol/kg
# [6] = female, Sprague-Dawley, rat, plasma, sc, 200 nmol/kg
# [7] = female, Sprague-Dawley, rat, plasma, sc, 0.6 umol/kg
# [8] = male, Sprague-Dawley, rat, plasma, iv, 40 nmol/kg
# [9] = absence of human serum, read-out: pEC50 (converted)
# [10] = presence of 20% human serum, read-out: pEC50 serum (converted)
structure (smiles),measurement,setting,value
CNC(=N)NCCC[C@H](NC(=O)[C@H](CC(C)C)NC(=O)NNC(=O)[C@H](Cc1ccccc1)NC(=O)[C@@H](NC(=O)[C@H](CC(N)=O)NC(=O)[C@H](Cc1c[nH]c2ccccc12)NC(=O)[C@H](CC(N)=O)NC(=O)[C@@H](Cc1ccc(O)cc1)NC(=O)CCCCn1cc(CCC(=O)NCCOCCOCCOCCO[C@H]2[C@H](OC)[C@@H](OC)[C@@H](O[C@H]3[C@H](OC)[C@@H](OC)[C@H](O[C@H]4[C@H](OS(=O)(=O)O)[C@@H](OS(=O)(=O)O)[C@@H](O[C@H]5[C@H](OC)[C@@H](OC)[C@H](O[C@H]6[C@H](OC)[C@@H](OS(=O)(=O)O)[C@@H](OC)O[C@@H]6COS(=O)(=O)O)O[C@H]5C(=O)O)O[C@@H]4COS(=O)(=O)O)O[C@@H]3C(=O)O)O[C@@H]2COS(=O)(=O)O)nn1)[C@@H](C)O)C(=O)N[C@@H](Cc1ccccc1)C(N)=O [Conjugate C7],half-life at 750 nM,[1],171 h
same,EC50,"[2]; pEC50, absence of human serum",0.158 nM
same,EC50,[2]; [4],0.501 nM
CNC(=N)NCCC[C@H](NC(=O)[C@H](CC(C)C)NC(=O)NNC(=O)[C@H](Cc1ccccc1)NC(=O)[C@@H](NC(=O)[C@H](CC(N)=O)NC(=O)[C@H](Cc1c[nH]c2ccccc12)NC(=O)[C@H](CC(N)=O)NC(=O)[C@@H](Cc1ccc(O)cc1)NC(=O)CCCCn1cc(CCC(=O)NCCOCCOCCOCCO[C@H]2[C@H](OC)[C@@H](OC)[C@@H](O[C@H]3[C@H](OC)[C@@H](OC)[C@H](O[C@H]4[C@H](OS(=O)(=O)O)[C@@H](OS(=O)(=O)O)[C@@H](O[C@H]5[C@H](OC)[C@@H](OC)[C@H](O[C@H]6[C@H](OS(=O)(=O)O)[C@@H](OS(=O)(=O)O)[C@@H](OC)O[C@@H]6COS(=O)(=O)O)O[C@H]5C(=O)O)O[C@@H]4COS(=O)(=O)O)O[C@@H]3C(=O)O)O[C@@H]2COS(=O)(=O)O)nn1)C(C)O)C(=O)N[C@@H](Cc1ccccc1)C(N)=O (stereo partly shown) [Conjugate C8],half-life at 750 nM,[1],> 240 h
same,EC50,"[2]; pEC50, absence of human serum",0.158 nM
same,EC50,[2]; [4],7.24 nM
same,AUCN(0-∞) IV,"[3]; 40 nmol/kg IV, male rats",60.4 nM·kg·h/µg
same,AUCN(0-∞) SC,"[3]; 200 nmol/kg SC, female rats",56.5 nM·kg·h/µg
same,F,"[3]; 200 nmol/kg SC, female rats",94%
same,AUC(0-inf),[3]; [5],38.7 µM·h
same,Cmax,[3]; [5],2310 nM
same,level at time molar at 24 h,[3]; [5],490 nM
same,Tmax,"[3]; female, Sprague-Dawley, rat, plasma, sc, 0.2 umol/kg, Tmax, SC 0.2 μmol/kg, female rats",2.7 h
same,Cmax,[3]; [6],2310 nM
same,bioavailability,[3]; [6],93.5%
same,Tmax,"[3]; female, Sprague-Dawley, rat, plasma, sc, 200 nmol/kg, Tmax, 200 nmol/kg SC, female rats",2.7 h
same,Tmax,"[3]; female, Sprague-Dawley, rat, plasma, sc, 200 nmol/kg, tmax, following subcutaneous administration",2.7 to 3.3 h
same,AUC(0-inf),[3]; [7],90.5 µM·h
same,Cmax,[3]; [7],5180 nM
same,level at time molar at 24 h,[3]; [7],1100 nM
same,Tmax,"[3]; female, Sprague-Dawley, rat, plasma, sc, 0.6 umol/kg, Tmax, SC 0.6 μmol/kg, female rats",1.7 h
same,Vd,[3]; [8],0.067 L/kg
same,clearance,[3]; [8],4.8 mL/h/kg
same,half-life,[3]; [8],11.5 h
CNC(=N)NCCC[C@H](NC(=O)[C@H](CC(C)C)NC(=O)NNC(=O)[C@H](Cc1ccccc1)NC(=O)[C@@H](NC(=O)[C@H](CC(N)=O)NC(=O)[C@H](Cc1c[nH]c2ccccc12)NC(=O)[C@H](CC(N)=O)NC(=O)[C@@H](Cc1ccc(O)cc1)NC(=O)CCOCCOCCOCCOCCn1cc(CCC(=O)NCCOCCOCCOCCO[C@H]2[C@H](OC)[C@@H](OC)[C@@H](O[C@H]3[C@H](OC)[C@@H](OC)[C@H](O[C@H]4[C@H](OS(=O)(=O)O)[C@@H](OS(=O)(=O)O)[C@@H](O[C@H]5[C@H](OC)[C@@H](OC)[C@H](O[C@H]6[C@H](OC)[C@@H](OS(=O)(=O)O)[C@@H](OC)O[C@@H]6COS(=O)(=O)O)O[C@H]5C(=O)O)O[C@@H]4COS(=O)(=O)O)O[C@@H]3C(=O)O)O[C@@H]2COS(=O)(=O)O)nn1)[C@@H](C)O)C(=O)N[C@@H](Cc1ccccc1)C(N)=O [Conjugate C10],half-life at 750 nM,[1],121 h
same,EC50,[2]; [9],0.123 nM
same,EC50,[2]; [10],0.525 nM
CNC(=N)NCCC[C@H](NC(=O)[C@H](CC(C)C)NC(=O)CNC(=O)[C@H](Cc1ccccc1)NC(=O)[C@@H](NC(=O)[C@H](CC(N)=O)NC(=O)[C@@H]1C[C@@H](O)CN1C(=O)[C@H](CC(N)=O)NC(=O)[C@H](Cc1ccc(O)cc1)NC(=O)CCOCCOCCOCCOCCn1cc(CCC(=O)NCCOCCOCCOCCO[C@H]2[C@H](OC)[C@@H](OC)[C@@H](O[C@H]3[C@H](OC)[C@@H](OC)[C@H](O[C@H]4[C@H](OS(=O)(=O)O)[C@@H](OS(=O)(=O)O)[C@@H](O[C@H]5[C@H](OC)[C@@H](OC)[C@H](O[C@H]6[C@H](OC)[C@@H](OS(=O)(=O)O)[C@@H](OC)O[C@@H]6COS(=O)(=O)O)O[C@H]5C(=O)O)O[C@@H]4COS(=O)(=O)O)O[C@@H]3C(=O)O)O[C@@H]2COS(=O)(=O)O)nn1)[C@@H](C)O)C(=O)N[C@@H](Cc1ccccc1)C(N)=O [Conjugate C25],half-life at 750 nM,[1],188 h
same,EC50,[2]; [9],0.372 nM
same,EC50,[2]; [10],1.02 nM
CNC(=N)NCCC[C@H](NC(=O)[C@H](CC(C)C)NC(=O)CNC(=O)[C@H](Cc1ccccc1)NC(=O)[C@@H](NC(=O)[C@H](CC(N)=O)NC(=O)[C@@H]1C[C@@H](O)CN1C(=O)[C@H](CC(N)=O)NC(=O)[C@H](Cc1ccc(O)cc1)NC(=O)CCOCCOCCOCCOCCn1cc(CCC(=O)NCCOCCOCCOCCO[C@H]2[C@H](OC)[C@@H](OC)[C@@H](O[C@H]3[C@H](OC)[C@@H](OC)[C@H](O[C@H]4[C@H](OS(=O)(=O)O)[C@@H](OS(=O)(=O)O)[C@@H](O[C@H]5[C@H](OC)[C@@H](OC)[C@H](O[C@H]6[C@H](OS(=O)(=O)O)[C@@H](OS(=O)(=O)O)[C@@H](OC)O[C@@H]6COS(=O)(=O)O)O[C@H]5C(=O)O)O[C@@H]4COS(=O)(=O)O)O[C@@H]3C(=O)O)O[C@@H]2COS(=O)(=O)O)nn1)[C@@H](C)O)C(=O)N[C@@H](Cc1ccccc1)C(N)=O [Conjugate C26],half-life at 750 nM,[1],> 240 h
CNC(=N)NCCC[C@H](NC(=O)[C@H](CC(C)C)NC(=O)NNC(=O)[C@H](Cc1ccccc1)NC(=O)[C@@H](NC(=O)[C@H](CC(N)=O)NC(=O)[C@@H]1C[C@@H](O)CN1C(=O)[C@@H](Cc1ccc(O)cc1)NC(=O)CCCCn1cc(CCC(=O)NCCOCCOCCOCCO[C@H]2[C@H](OC)[C@@H](OC)[C@@H](O[C@H]3[C@H](OC)[C@@H](OC)[C@H](O[C@H]4[C@H](OS(=O)(=O)O)[C@@H](OS(=O)(=O)O)[C@@H](O[C@H]5[C@H](OC)[C@@H](OC)[C@H](O[C@H]6[C@H](OS(=O)(=O)O)[C@@H](OS(=O)(=O)O)[C@@H](OC)O[C@@H]6COS(=O)(=O)O)O[C@H]5C(=O)O)O[C@@H]4COS(=O)(=O)O)O[C@@H]3C(=O)O)O[C@@H]2COS(=O)(=O)O)nn1)[C@@H](C)O)C(=O)N[C@@H](Cc1c[nH]c2ccccc12)C(N)=O [Conjugate C31],half-life at 750 nM,[1],> 240 h
CNC(=N)NCCC[C@H](NC(=O)[C@H](CC(C)C)NC(=O)NNC(=O)[C@H](Cc1ccccc1)NC(=O)[C@@H](NC(=O)[C@H](CC(N)=O)NC(=O)[C@@H]1C[C@@H](O)CN1C(=O)[C@@H](Cc1ccc(O)cc1)NC(=O)CCOCCOCCOCCOCCn1cc(CCC(=O)NCCOCCOCCOCCO[C@H]2[C@H](OC)[C@@H](OC)[C@@H](O[C@H]3[C@H](OC)[C@@H](OC)[C@H](O[C@H]4[C@H](OS(=O)(=O)O)[C@@H](OS(=O)(=O)O)[C@@H](O[C@H]5[C@H](OC)[C@@H](OC)[C@H](O[C@H]6[C@H](OC)[C@@H](OS(=O)(=O)O)[C@@H](OC)O[C@@H]6COS(=O)(=O)O)O[C@H]5C(=O)O)O[C@@H]4COS(=O)(=O)O)O[C@@H]3C(=O)O)O[C@@H]2COS(=O)(=O)O)nn1)[C@@H](C)O)C(=O)N[C@@H](Cc1c[nH]c2ccccc12)C(N)=O [Conjugate C34],half-life at 750 nM,[1],138 h
same,EC50,[2]; [9],0.0407 nM
same,EC50,[2]; [10],0.141 nM
CNC(=N)NCCC[C@H](NC(=O)[C@H](CC(C)C)NC(=O)NNC(=O)[C@H](Cc1ccccc1)NC(=O)[C@@H](NC(=O)[C@H](CC(N)=O)NC(=O)[C@@H]1C[C@@H](O)CN1C(=O)[C@@H](Cc1ccc(O)cc1)NC(=O)CCOCCOCCOCCOCCn1cc(CCC(=O)NCCOCCOCCOCCO[C@H]2[C@H](OC)[C@@H](OC)[C@@H](O[C@H]3[C@H](OC)[C@@H](OC)[C@H](O[C@H]4[C@H](OS(=O)(=O)O)[C@@H](OS(=O)(=O)O)[C@@H](O[C@H]5[C@H](OC)[C@@H](OC)[C@H](O[C@H]6[C@H](OS(=O)(=O)O)[C@@H](OS(=O)(=O)O)[C@@H](OC)O[C@@H]6COS(=O)(=O)O)O[C@H]5C(=O)O)O[C@@H]4COS(=O)(=O)O)O[C@@H]3C(=O)O)O[C@@H]2COS(=O)(=O)O)nn1)[C@@H](C)O)C(=O)N[C@@H](Cc1c[nH]c2ccccc12)C(N)=O [Conjugate C35],half-life at 750 nM,[1],> 240 h
same,EC50,[2]; [9],0.0427 nM
same,EC50,[2]; [10],1.38 nM
"CO[C@H]1O[C@H](COS(=O)(=O)O)[C@@H](O[C@@H]2O[C@@H](C(=O)O)[C@@H](O[C@H]3O[C@H](COS(=O)(=O)O)[C@@H](O[C@@H]4O[C@H](C(=O)O)[C@@H](O[C@H]5O[C@H](COS(=O)(=O)O)[C@@H](OCCOCCOCCOCCNC(=O)CCc6cn(CCCCC(=O)N[C@@H](Cc7ccc(O)cc7)C(=O)N[C@@H](CC(N)=O)C(=O)N[C@@H](Cc7c[nH]c8ccccc78)C(=O)N[C@@H](CC(N)=O)C(=O)N[C@@H](CO)C(=O)N[C@@H](Cc7ccccc7)C(=O)NCC(=O)N[C@@H](CC(C)C)C(=O)N[C@@H](CCCNC(=N)N)C(=O)N[C@@H](Cc7ccccc7)C(N)=O)nn6)[C@H](OC)[C@H]5OC)[C@H](OC)[C@H]4OC)[C@H](OS(=O)(=O)O)[C@H]3OS(=O)(=O)O)[C@H](OC)[C@H]2OC)[C@H](OS(=O)(=O)O)[C@H]1OS(=O)(=O)O [Conjugate C42, reference compound]",half-life at 750 nM,[1],121 h
same,EC50,[2]; [9],1.58 nM
same,potency (in words),[2]; in words,not sufficiently potent
same,EC50,[2]; [10],31.6 nM
"CNC(=N)NCCC[C@H](NC(=O)[C@H](CC(C)C)NC(=O)NNC(=O)[C@H](Cc1ccccc1)NC(=O)[C@@H](NC(=O)[C@H](CC(N)=O)NC(=O)[C@H](Cc1c[nH]c2ccccc12)NC(=O)[C@H](CC(N)=O)NC(=O)[C@H](N)Cc1ccc(O)cc1)[C@@H](C)O)C(=O)N[C@@H](Cc1ccccc1)C(N)=O [Conjugate P29, reference compound] (H-[dY]NWNTF[azaGly]L[Arg(Me)]F-NH2)",half-life at 750 nM,[1],5.4 h
same,stability (in words),[1]; in words,not sufficiently stable
same,EC50,[2]; [9],0.1 nM
same,EC50,[2]; [10],0.0501 nM

# Source: patent US9127038B2, “Kisspeptide-pentasaccharide conjugates” (Merck Sharp & Dohme Corp., priority 2011, dated 2015)
